Patent publication US6593108B1 (priority 1999, dated 2003)
Values joined by “and” are separate entries in the source; they are usually repeats but may differ in a detail not shown here. Equal entries are not always repeated. Where a SMILES comes first, the peptide text is derived from it. Bridges are numbered along the chain shown (N, C = ends). Where no end group is shown, it is not given here.

Experiments:
MCH-R1 [1] = molecular target: T1, MCH-R1 (Homo sapiens, UniProt Q99705); assay: SPA, CHO/MCH-R1 membranes, nonspecific defined with 500 nM unlabeled MCH
[2] = molecular target: HG67 (melanin-concentrating hormone receptor 2) (human) (UniProt Q969V1); assay: SPA, COS or CHO MCH-R2 membranes, nonspecific defined with 500 nM unlabeled MCH
[3] = molecular target: HG67 (melanin-concentrating hormone receptor 2) (human) (UniProt Q969V1); assay: cell-based or functional assay
MCH-R1 [4] = molecular target: T1, MCH-R1; assay: cell-based or functional assay
MCH-R1 [5] = molecular target: T1, MCH-R1; assay: SPA, displacement of [125I]Phe13Tyr19-MCH from MCH-R1 membranes
[6] = molecular target: HG67 (melanin-concentrating hormone receptor 2) (human) (UniProt Q969V1); assay: SPA, displacement of [125I]Phe13Tyr19-MCH from MCH-R2 membranes
MCH-R1 [7] = molecular target: T1, MCH-R1; assay: Pertussis toxin effect on MCH-R1 signaling; format: cell-based; conditions: dose dependent
Description: MCH-R2 appears to activate Gαq. […] Intracellular calcium mobilization through MCH-R2 was not affected by different concentrations of pertussis toxin (PTX), while MCH-R1 signaling was reduced in a dose dependent manner to about 50%. The results of incomplete PTX-inhibition of MCH-R1 signaling is in contrast to Lembo, et al., 1999. […] (Tadayyon, et al., 2000. 275(2), 709-712).

MCH-R1 [8] = molecular target: T1, MCH-R1; conditions: Lembo, et al., 1999; cited from earlier work
non-transfected cells = assay: Intracellular calcium ([Ca2+]i) measurement with fura-2 in non-transfected cells; format: cell-based, human; conditions: data not shown
Description: (§1) The entire coding sequence of human HG67 was cloned into BamHI -NotI site of pEF1/V5-HisB plasmid vector (Invitrogen, Carlsbad, Calif.). The resultant construct was transfected into HEK-293T cells using Effectene (Qiagen, Hilden, Germany) or LipofectAmine PLUS (Life Technologies) according to the manufacture's instructions. Human embryonic kidney cells constitutively expressing SV40 large T antigen (HEK-293T) were maintained in D-MEM/F-12 medium (Life Technologies, Rockville, Md.) supplemented with 10% fetal bovine serum, 100 units/ml penicillin-G and 100 μg/ml streptomycin at 37° C. with 5% CO2 in a humidified atmosphere.
(§2) The intracellular calcium ion concentration ([Ca^2+]i) was measured fluorometrically using a Ca^2+-sensitive fluorescent dye, fura-2. HEK293T cells transiently transfected with pEF1/V5-HisB plasmid vector harboring HG67 cDNA were harvested by phosphate-buffered saline containing 2 mM EDTA 48 hours after transfection, and washed once with the assay buffer (Hanks' balanced salt solution, 10 mM HEPES, 0.1% BSA, pH 7.4). The cells were suspended with the buffer containing 2 μM fura-2 acetoxymethylester (Dojin, Kumamoto, Japan) into the cell density of 1.0×10^7 cells/ml and incubated at 37° C. for 60 minutes with gently shaking. The fura-2-loaded cells were washed twice with the buffer and re-suspended with the buffer to 1.0×10^6 cells/ml. […]

mock transfected cells = assay: [125I]-MCH binding to mock transfected HEK293T cells; set-up: species or system human
HG67 = molecular target: T2, HG67 (Homo sapiens, UniProt Q969V1); assay: Intracellular calcium ([Ca2+]i) measurement with fura-2 in HEK293T cells transiently expressing HG67; format: cell-based; conditions: HEK293T cells transiently expressing HG67, fura-2; read-out: EC50 of increase in intracellular calcium levels
T2 construct: expressed in transfected cells; host or cells: HEK-293T, transient
Description: as §1, §2

[9] = molecular target: T3, HG67 (melanin-concentrating hormone receptor 2) (human, UniProt Q969V1 1-340); assay: cell-based or functional assay
[10] = molecular target: T3, HG67 (melanin-concentrating hormone …); assay: cell-based or functional assay; remark: listed apart in the source
[11] = molecular target: T3, HG67 (melanin-concentrating hormone …); assay: SPA, displacement of [125I]Phe13Tyr19-MCH from MCH-R2 membranes
Experimental: (§3) SPA was carried out using wheat-germ agglutinin-polyvinyltoluene beads (Amersham Corp., Arlington Heights, Ill.), in 96-well OptiPlates (Packard, Meriden, Conn.). Each well contained 0.25 mg of SPA beads, 1–10 μg of membrane protein, and 200 μl of binding buffer.
(§4) After equilibrating at room temperature for 3 hours, the plates were read in a TopCount (Packard, Meriden, Conn.). IC$50$ calculations were performed using Prism 3.0 (GraphPad Software, San Diego, Calif.).

MCH-R1 [12] = molecular target: T4, MCH-R1 (Homo sapiens (Human), UniProt Q99705 1-353); assay: cell-based or functional assay
MCH-R1 [13] = molecular target: T4, MCH-R1; assay: SPA, displacement of [125I]Phe13Tyr19-MCH from MCH-R1 membranes
Experimental: as §3, §4

T3 sequence (Q969V1 whole entry): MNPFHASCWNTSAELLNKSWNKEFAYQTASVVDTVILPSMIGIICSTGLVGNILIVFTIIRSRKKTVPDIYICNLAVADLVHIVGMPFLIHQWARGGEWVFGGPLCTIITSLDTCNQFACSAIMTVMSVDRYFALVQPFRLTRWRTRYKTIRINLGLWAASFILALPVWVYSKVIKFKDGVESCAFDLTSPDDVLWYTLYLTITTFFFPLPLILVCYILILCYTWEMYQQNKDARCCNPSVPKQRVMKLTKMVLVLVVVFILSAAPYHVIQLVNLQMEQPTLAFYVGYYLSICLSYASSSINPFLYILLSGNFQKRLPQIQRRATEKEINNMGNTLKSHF
Chain of HG67 (melanin-concentrating hormone receptor 2) (human) (Q969V1 whole entry): as above
T4 sequence (Q99705 whole entry, form in doubt): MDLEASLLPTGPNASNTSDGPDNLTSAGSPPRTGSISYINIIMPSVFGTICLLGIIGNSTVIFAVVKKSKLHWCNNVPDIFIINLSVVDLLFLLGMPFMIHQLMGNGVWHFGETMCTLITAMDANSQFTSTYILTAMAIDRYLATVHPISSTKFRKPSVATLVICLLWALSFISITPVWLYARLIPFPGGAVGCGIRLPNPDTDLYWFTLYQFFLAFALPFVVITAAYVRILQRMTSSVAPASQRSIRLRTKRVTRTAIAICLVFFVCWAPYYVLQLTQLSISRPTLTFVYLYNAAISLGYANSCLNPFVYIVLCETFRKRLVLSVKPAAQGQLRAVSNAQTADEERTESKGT
T2 sequence (Q969V1 whole entry): as the sequence (Q969V1 whole entry) above

## [125I]Phe^13Tyr^19-MCH (from UniProt P20382 147-165) (peptide)
MCH-R1 [1]
  specific binding window: 6 x
[2]
  specific binding window: 3 x

## Salmon MCH (peptide)
[3]
  Function (EC50): 90.5 nM
MCH-R1 [4]
  Function (EC50): 119 nM
MCH-R1 [5]
  IC50: 0.2 nM
[6]
  IC50: 437 nM

## pertussis toxin
MCH-R1 [7]
  MCH-R1 signaling remaining after PTX (reduced to): about 50%
MCH-R1 [8]
  PTX inhibition of MCH-1R signaling: complete PTX inhibition

## Melanin-concentrating hormone [MCH]
non-transfected cells
  [Ca2+]i increase in the non-transfected cells: failed to induce detectable [Ca^2+]i increase

## [^125I]-MCH: radioiodinated MCH, NEN Life Science Products
Mock transfected cells; in words
  Specific binding to mock transfected cells: any specific binding was not observed
Mock transfected cells; mock transfected HEK293T cells, [125I]-MCH 100 pM plus 1 μM cold MCH, two values per cell
  Nonspecific binding (1 μM MCH): 352.2 Cpm and 326.6 Cpm
Mock transfected cells; mock transfected HEK293T cells, [125I]-MCH 100 pM, two values per cell
  Total binding (DMSO): 516.4 Cpm and 392.5 Cpm

## [Phe^13, Leu^19]-MCH (from UniProt P20382 147-165) (peptide)
[3]
  increase in intracellular calcium levels (fura-2), EC50: 0.078 nM

## CSCC[C@@H]1NC(=O)[C@@H](NC(=O)[C@H](CCCNC(=N)N)NC(=O)[C@H](CC(C)C)NC(=O)[C@H](CCSC)NC(=O)[C@H](CC(=O)O)NC(=O)[C@H](Cc2ccccc2)NC(=O)[C@@H](N)CC(=O)O)CSSC[C@@H](C(=O)N[C@@H](Cc2c[nH]c3ccccc23)C(=O)N[C@@H](CCC(N)=O)C(=O)N[C@@H](CC(C)C)C(=O)O)NC(=O)[C@@H]2CCCN2C(=O)[C@H](CCCNC(=N)N)NC(=O)[C@H](Cc2ccccc2)NC(=O)[C@H](C(C)C)NC(=O)[C@H](CCCNC(=N)N)NC(=O)CNC(=O)[C@H](CC(C)C)NC1=O [[Phe^13, Leu^19]-MCH] (H-DFDMLRCMLGRVFRPCWQL-OH; disulfide 7-16 (inferred); N-terminus and C-terminus assumed)
HG67
  EC50: 0.078 nM
non-transfected cells
  [Ca2+]i increase in the non-transfected cells: failed to induce detectable [Ca^2+]i increase

B1: human melanin-concentrating hormone (MCH) (peptide, UniProt P20382 147-165, looked up)
peptide: DFDMLRCMLGRVYRPCWQV
modifications: ends and bridges not checked; cysteine pairing not given here
notes: mature; Both are treated as one molecule; the mature 19-mer is its C-terminal part; also called Human MCH; cold MCH
[9]
  IP turnover, EC50: 2.8 nM
  aequorin assay in HEK293/aeq17/Galpha15 cells, EC50: 26 nM
  increase in intracellular calcium levels (fura-2), EC50: 0.02 nM
[10]
  Function (EC50): 44.1 nM
[11]
  IC50: 1.5 nM

## DFDMLRCMLGRVFRPCWQY [(Phe^13Tyr^19)-MCH]
[10]
  Function (EC50): 65.5 nM
MCH-R1 [12]
  Function (EC50): 83.1 nM
MCH-R1 [13]
  IC50: 0.3 nM
[11]
  IC50: 0.8 nM
